According to paper PMC7156385, “Proper chromosome alignment depends on BRCA2 phosphorylation by PLK1” (Nature Communications, 2020):
[ ]: non-standard residue; d: D form. pT = C[C@@H](OP(=O)(O)O)[C@H](N)C(=O)O; pS = N[C@@H](COP(=O)(O)O)C(=O)O

Tests used:
[1] = target: purified 2xMBP-BRCA2_(1-250) T207A (human) (UniProt P51587)
[2] = target: BRCA2_(190-284) phosphorylated by PLK1 (human) (UniProt P51587); experiment: ITC; PLK1 PBD (326-603) and BRCA2 peptides; 50 mM Tris-HCl pH 8.0, 150 mM NaCl, 5 mM β-ME, 293 K, VP-ITC, one-site binding model
[3] = target: endogenous BUBR1 (human (endogenous in DLD1)) (UniProt O60566); experiment: co-IP; immunoprecipitation of endogenous BUBR1 with mouse anti-BUBR1 antibody from nocodazole-treated DLD1 BRCA2-/- stable clones expressing BRCA2 WT or variants; extraction buffer A, washes up to 500 mM NaCl; western blot for PP2A-C and PLK1
recombinant PLK1 = target: T1, recombinant PLK1 (UniProt P53350 1-603); experiment: pull-down; in vitro kinase reaction (0.2 µg PLK1 or PLK1-KD, 0.5 µg 2xMBP-BRCA2_(1-250), kinase buffer with 250 µM ATP or without ATP, 30 min at 30 °C) followed by amylose beads for 1 h at 4 °C, washes with 0.5% NP-40 and 0.1% Triton X-100, elution with 10 mM maltose; western blot; conditions: both partners purified
T1 construct: Polo-like kinase 1 (PLK1), cDNA from Addgene pTK24 cloned into pFast-Bac HT; also called 6xHis-PLK1; PLK1-WT; source: Sf9, purified (Ni-NTA, Capto S) or bought: Abcam

[4] = target: T2, PLK1 Polo-box domain (amino acid 326 to amino acid 603) (UniProt P53350 326-603); experiment: ITC; PLK1 PBD (326-603) and BRCA2 peptides; 50 mM Tris-HCl pH 8.0, 150 mM NaCl, 5 mM β-ME, 293 K, VP-ITC, one-site binding model; conditions: both partners purified
T2 construct: PLK1, Polo-box domain, amino acids 326 to 603, amplified from Addgene pTK24; also called PLK1PBD; PLK1 PBD (326-603); source: E. coli Tuner pLacI pRare, purified (His-Trap, SUMO protease, Ni-NTA, Superdex)
T2 sequence (P53350 326-603): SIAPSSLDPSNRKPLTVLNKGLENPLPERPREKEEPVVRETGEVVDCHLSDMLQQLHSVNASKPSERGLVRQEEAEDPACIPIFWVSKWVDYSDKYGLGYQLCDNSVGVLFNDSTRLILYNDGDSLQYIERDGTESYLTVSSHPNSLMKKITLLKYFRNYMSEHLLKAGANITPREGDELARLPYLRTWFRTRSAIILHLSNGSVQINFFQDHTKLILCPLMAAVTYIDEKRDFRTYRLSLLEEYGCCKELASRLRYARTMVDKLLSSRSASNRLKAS

T1 sequence (P53350 whole entry): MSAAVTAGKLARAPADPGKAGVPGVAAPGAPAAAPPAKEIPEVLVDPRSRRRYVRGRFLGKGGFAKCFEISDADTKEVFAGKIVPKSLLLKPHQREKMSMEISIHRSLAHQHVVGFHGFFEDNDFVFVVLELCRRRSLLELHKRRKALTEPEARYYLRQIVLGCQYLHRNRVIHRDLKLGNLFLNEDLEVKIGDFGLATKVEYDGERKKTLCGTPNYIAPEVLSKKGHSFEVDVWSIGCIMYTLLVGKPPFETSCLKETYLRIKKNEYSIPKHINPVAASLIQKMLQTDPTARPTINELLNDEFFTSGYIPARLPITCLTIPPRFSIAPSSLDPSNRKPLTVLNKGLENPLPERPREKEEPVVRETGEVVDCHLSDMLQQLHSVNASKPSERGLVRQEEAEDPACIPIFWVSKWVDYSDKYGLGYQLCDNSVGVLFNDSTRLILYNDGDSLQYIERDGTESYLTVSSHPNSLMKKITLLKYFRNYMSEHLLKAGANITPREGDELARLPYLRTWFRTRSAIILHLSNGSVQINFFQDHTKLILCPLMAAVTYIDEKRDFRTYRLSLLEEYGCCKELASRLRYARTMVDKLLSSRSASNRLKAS
Chain of BRCA2_(190-284) phosphorylated by PLK1 (human) (P51587 190-284): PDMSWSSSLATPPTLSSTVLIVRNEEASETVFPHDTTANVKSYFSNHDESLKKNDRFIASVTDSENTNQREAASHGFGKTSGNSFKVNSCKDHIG
Chain of endogenous BUBR1 (human (endogenous in DLD1)) (O60566 whole entry): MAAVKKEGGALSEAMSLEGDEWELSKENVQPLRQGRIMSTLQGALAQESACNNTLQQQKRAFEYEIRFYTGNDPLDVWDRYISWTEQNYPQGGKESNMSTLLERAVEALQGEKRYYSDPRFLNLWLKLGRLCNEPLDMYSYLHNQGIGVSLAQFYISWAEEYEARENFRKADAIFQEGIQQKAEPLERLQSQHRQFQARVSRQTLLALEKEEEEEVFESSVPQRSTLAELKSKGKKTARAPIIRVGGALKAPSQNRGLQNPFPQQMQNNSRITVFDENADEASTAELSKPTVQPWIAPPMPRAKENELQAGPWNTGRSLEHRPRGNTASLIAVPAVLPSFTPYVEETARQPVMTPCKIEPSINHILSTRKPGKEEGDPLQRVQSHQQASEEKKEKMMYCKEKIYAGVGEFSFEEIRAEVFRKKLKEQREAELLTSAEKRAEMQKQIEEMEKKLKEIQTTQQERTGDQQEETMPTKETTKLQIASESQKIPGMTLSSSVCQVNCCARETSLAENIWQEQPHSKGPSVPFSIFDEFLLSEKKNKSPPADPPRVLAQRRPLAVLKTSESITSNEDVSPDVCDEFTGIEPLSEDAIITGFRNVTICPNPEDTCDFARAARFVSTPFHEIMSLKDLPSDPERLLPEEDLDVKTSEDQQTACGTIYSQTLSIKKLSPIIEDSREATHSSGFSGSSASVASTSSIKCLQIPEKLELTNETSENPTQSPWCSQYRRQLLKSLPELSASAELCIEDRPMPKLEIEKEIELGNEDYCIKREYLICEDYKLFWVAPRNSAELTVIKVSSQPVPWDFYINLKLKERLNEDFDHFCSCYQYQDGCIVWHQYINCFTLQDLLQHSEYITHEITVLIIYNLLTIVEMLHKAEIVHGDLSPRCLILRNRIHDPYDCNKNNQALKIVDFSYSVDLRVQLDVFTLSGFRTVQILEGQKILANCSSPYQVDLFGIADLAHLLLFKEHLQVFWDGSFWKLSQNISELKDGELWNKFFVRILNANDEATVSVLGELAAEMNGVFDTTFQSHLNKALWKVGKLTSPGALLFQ

recombinant PLK1 (from UniProt P53350 1-603) (enzyme)
fold decrease in in vitro kinase assay: phosphorylation of 2xMBP-BRCA2 (1-250) by recombinant PLK1 (32P), T207A against WT [1]: 2 fold

PLK1 Polo-box domain (amino acid 326 to amino acid 603) (from UniProt P53350 326-603) (domain or fragment)
Kd [2]: 0.14 µM

PP2A (detected by its catalytic subunit, PP2AC) (from UniProt P67775 1-309) (cell line)
reduction of PP2A co-immunoprecipitated with BUBR1 in BRCA2-T207A cells against BRCA2 WT cells [3]: 30%

B1: purified 2xMBP-BRCA2_(1-250) WT (domain or fragment, human, UniProt P51587 1-250, looked up)
chain: MPIGSKERPTFFEIFKTRCNKADLGPISLNWFEELSSEAPPYNSEPAEESEHKNNNYEPNLFKTPQRKPSYNQLASTPIIFKEQGLTLPLYQSPVKELDKFKLDLGRNVPNSRHKSLRTVKTKMDQADDVSCPLLNSCLSESPVVLQCTHVTPQRDKSVVCGSLFHTPKFVKGRQTPKHISESLGAEVDPDMSWSSSLATPPTLSSTVLIVRNEEASETVFPHDTTANVKSYFSNHDESLKKNDRFIASV
notes: BRCA2, human, amino acids 1 to 250; also called PLK1-phosphorylated BRCA2_(1-250); source: HEK293T, transfected, purified (amylose resin, Bio-Rex 70)
binding result (recombinant PLK1): binds

B2: BRCA2 peptide containing pS197 (peptide)
chain: Ac-DMSWSS[pS]LAT-NH2
SMILES: CSCC[C@H](NC(=O)[C@H](CC(=O)O)NC(C)=O)C(=O)N[C@@H](CO)C(=O)N[C@@H](Cc1c[nH]c2ccccc12)C(=O)N[C@@H](CO)C(=O)N[C@@H](CO)C(=O)N[C@@H](COP(=O)(O)O)C(=O)N[C@@H](CC(C)C)C(=O)N[C@@H](C)C(=O)N[C@H](C(N)=O)[C@@H](C)O
Kd [4]: 17 ± 2 µM

B3: BRCA2 17 aa peptide containing pT207 (194WSSSLATPPTLSS{pT}VLI210) (peptide)
peptide: Ac-WSSSLATPPTLSS[pT]VLI-NH2
SMILES: CC[C@H](C)[C@H](NC(=O)[C@H](CC(C)C)NC(=O)[C@@H](NC(=O)[C@@H](NC(=O)[C@H](CO)NC(=O)[C@H](CO)NC(=O)[C@H](CC(C)C)NC(=O)[C@@H](NC(=O)[C@@H]1CCCN1C(=O)[C@@H]1CCCN1C(=O)[C@@H](NC(=O)[C@H](C)NC(=O)[C@H](CC(C)C)NC(=O)[C@H](CO)NC(=O)[C@H](CO)NC(=O)[C@H](CO)NC(=O)[C@H](Cc1c[nH]c2ccccc12)NC(C)=O)[C@@H](C)O)[C@@H](C)O)[C@@H](C)OP(=O)(O)O)C(C)C)C(N)=O
notes: BRCA2, human, residues 194-210, T207 phosphorylated; Used for ITC and for the crystal; also called pT207 peptide; T207 phosphorylated peptide; source: synthetic peptide
Kd [4]: 0.09 ± 0.01 µM
